Like-named read-outs stand apart in the source and are kept apart here. Residues, ends and D or L forms follow the SMILES beside them. No end group written: not given here.
Key:
HLA-DR0401 [1] = target: T1, HLA-DR0401 (Homo sapiens, UniProt P01903+P01911, A100K/A169T/F76Y/I96L/K127E/L162R/M171V/N62H/P40V/Q125Y/R42H/S133A/S149N/S66Y/V115G/V209L/W38E); experiment: biochemical; format: binding
HLA-DR0403 [2] = target: T2, HLA-DR0403 (Homo sapiens, UniProt P01903+P01911, A100R/A103E/A169T/F76Y/I96L/K127E/L162R/M171V/N62H/P40V/Q125Y/R42H/S133A/S149N/S66Y/V209L/W38E); experiment: biochemical; format: binding
HLA-DR0405 = HLA-DR0405 (Homo sapiens, UniProt P01903+P01911, A100R/A169T/D86S/F76Y/I96L/K127E/L162R/M171V/N62H/P40V/Q125Y/R42H/S133A/S149N/S66Y/V115G/V209L/W38E); experiment: Indirect; format: binding; settings: read-out: IC50 (uM) 0405; pH 5.4
HLA-DR0401 [3] = target: T1, HLA-DR0401; experiment: Kinetic analysis; format: binding; settings: pH 5.4, read-out: Kd 0401 (dissociation rate constant)
HLA-DR0403 [4] = target: T2, HLA-DR0403; experiment: Kinetic analysis; format: binding; settings: pH 5.4, read-out: Kd 0403 (dissociation rate constant)
DR0403 = DR0403 (Homo sapiens, UniProt P01903+P01911, A100R/A103E/A169T/F76Y/I96L/K127E/L162R/M171V/N62H/P40V/Q125Y/R42H/S133A/S149N/S66Y/V209L/W38E); experiment: 16-hour direct binding assay of biotinylated reference peptide, DR0403
[5] = target: HLA-DR0403 (DRA1*0101/DRB1*0403), soluble recombinant (human); experiment: ELISA
[6] = target: HLA-DR0403 (DRA1*0101/DRB1*0403), soluble recombinant (human); experiment: ELISA; remark: listed apart in the source
[7] = target: HLA-DR0401 (DRA1*0101/DRB1*0401), soluble recombinant (human); experiment: ELISA

Molecule: CC(C)C[C@H](NC(=O)[C@H](CC(C)C)NC(=O)[C@@H]1CCCN1C(=O)[C@H](CC(=O)O)NC(=O)[C@H](Cc1ccccc1)NC(=O)[C@H](C)NC(=O)CNC(=O)[C@H](Cc1ccc(O)cc1)NC(=O)[C@@H](NC(=O)[C@@H](NC(=O)[C@@H](NC(=O)CNC(=O)[C@H](C)NC(=O)[C@@H](NC(=O)[C@H](C)NC(=O)[C@H](CO)NC(=O)[C@@H](NC(=O)[C@H](CC(C)C)NC(=O)[C@H](Cc1ccccc1)NC(=O)[C@@H]1CCCN1)C(C)C)[C@@H](C)O)[C@@H](C)O)[C@@H](C)O)C(C)C)C(=O)O [GAD65p42] (H-PFLVSATAGTTVYGAFDPLL-OH)
- IC50 (HLA-DR0401 [1]): 2.07 µM
- IC50 (HLA-DR0403 [2]): 1.27 µM
- IC50 (HLA-DR0405): > 10 µM
- koff (HLA-DR0401 [3]): 5.42e-05 s⁻¹
- koff (HLA-DR0403 [4]): 2.02e-05 s⁻¹

Molecule: CC[C@H](C)[C@H](NC(=O)[C@@H](NC(=O)[C@@H]1CCCN1C(=O)[C@H](C)NC(=O)[C@@H](N)C(C)C)C(C)C)C(=O)N[C@@H](CCCCN)C(=O)N[C@@H](C)C(=O)N[C@@H](CCCNC(=N)N)C(=O)N[C@@H](CCSC)C(=O)N[C@@H](CCSC)C(=O)N[C@@H](CCC(=O)O)C(=O)N[C@@H](Cc1ccc(O)cc1)C(=O)NCC(=O)N[C@H](C(=O)N[C@H](C(=O)N[C@@H](CCSC)C(=O)N[C@H](C(=O)N[C@@H](CO)C(=O)N[C@@H](Cc1ccc(O)cc1)C(=O)N[C@@H](CCC(N)=O)C(=O)O)C(C)C)[C@@H](C)O)[C@@H](C)O [GAD65p67] (H-VAPVIKARMMEYGTTMVSYQ-OH)
- IC50 (HLA-DR0401 [1]): 0.64 µM
- IC50 (HLA-DR0403 [2]): 1.61 µM
- IC50 (HLA-DR0405): > 10 µM
- koff (HLA-DR0401 [3]): 0.000149 s⁻¹
- koff (HLA-DR0403 [4]): 7.67e-05 s⁻¹

Molecule: NFIRMVISNPAAT [557I]
- ED50 to bind 0.05 µM DR0403 (DR0403): 0.01 µM

Molecule: biotinylated influenza hemagglutinin derived peptide HA306
- EC50 [5]: > 15 µM

Molecule: NFIRMVISNPAAT (not fully specified) [biotinylated GAD65-557I]
- EC50 [6]: 0.01 µM

Molecule: RGIVEQCCTSICSLYQLENY [preproinsulin p12]
- IC50 [7]: 0.22 µM
- IC50 [6]: 1.89 µM

Molecule: YAMMIARFKMFPEVKEKGMA [GAD65p32]
- IC50 [6]: 10 µM

Molecule: GAGSLQPLALEGSLQKRGIV [preproinsulin p10]
- IC50 [7]: 8.75 µM

Molecule: CACDQKPCSCSKVDVNYAFL [GAD65p10]
- IC50 [6]: 3.55 µM

Molecule: CFWYIPPSLRTLEDNEERMS [GAD65p64]
- IC50 [6]: 1 µM

Molecule: PFLVSATAGTTVYGAFDPLL (not fully specified) [biotinylated GAD65p42]
- koff [7]: 5.42e-05 s⁻¹
- t1/2 [7]: 3.6 min
- koff [6]: 2.02e-05 s⁻¹
- t1/2 [6]: 9.6 min

Molecule: YDLSYDTGDKALQCGRHVDV [GAD65p55]
- IC50 [7]: 10 µM

Molecule: VAPVIKARMMEYGTTMVSYQ (not fully specified) [biotinylated GAD65p67]
- koff [7]: 0.000149 s⁻¹
- t1/2 [7]: 77.4 min
- koff [6]: 7.67e-05 s⁻¹
- t1/2 [6]: 151 min

Molecule: YAIKTGHPRYFNQLSTGLDM [GAD65p22]
- IC50 [6]: 10 µM

Molecule: TSICSLYQLENYCN [preproinsulin p13]
- IC50 [6]: 0.47 µM

From article PMC3046295 (Journal of autoimmunity, 2011)
